Assay results: patent publication EP4365197A1 (Innobation Bio Co., Ltd., dated 2024)

Key:
[1] = biological target: CD47 on the CD47-overexpressing breast cancer cell line MCF-7 (UniProt Q08722); experiment: flow cytometry on MCF-7 cells, secondary antibody alone (background control)
[2] = biological target: T1, CD47 on the CD47-overexpressing breast cancer cell line MCF-7 (UniProt Q08722 19-323, limits assumed); experiment: flow cytometry on MCF-7 cells, 1 µg antibody
T1 construct: whole, on cells; Endogenous CD47 on MCF-7 cells; The positive control used on these cells is an anti-human CD47 antibody; also called CD47 overexpressing tumor cells (MCF-7); MCF-7 cells expressing CD47
T1 sequence (Q08722 19-323 limits assumed): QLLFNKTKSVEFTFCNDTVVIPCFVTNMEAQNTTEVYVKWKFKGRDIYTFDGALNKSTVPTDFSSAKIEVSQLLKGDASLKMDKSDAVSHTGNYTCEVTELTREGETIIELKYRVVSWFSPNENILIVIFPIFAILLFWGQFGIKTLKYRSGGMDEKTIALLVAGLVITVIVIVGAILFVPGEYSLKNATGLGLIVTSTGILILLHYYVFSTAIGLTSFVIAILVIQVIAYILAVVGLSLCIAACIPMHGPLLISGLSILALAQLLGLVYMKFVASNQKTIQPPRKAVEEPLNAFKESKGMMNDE

[3] = biological target: CD47 protein (Acrobiosystems, cat#CD7-HA2E9) (UniProt Q08722); experiment: ELISA, CD47 protein coated 100 ng/well, 0.8 µg antibody per well
CD47 protein (Acrobiosystems, cat#CD7-HA2E9), sequence (Q08722 19-139 limits assumed): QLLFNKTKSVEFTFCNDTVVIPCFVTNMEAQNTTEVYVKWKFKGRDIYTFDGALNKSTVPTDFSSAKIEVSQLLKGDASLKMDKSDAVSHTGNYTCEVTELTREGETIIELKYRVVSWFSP

CD47 on the CD47-overexpressing breast cancer cell line MCF-7 (UniProt Q08722), sequence (Q08722 19-323 limits assumed): as the sequence (Q08722 19-323 limits assumed) above

| Molecule | Mean (fluorescence) [1] | Median (fluorescence) [1] | binding result [2] | OD450 measurements [3] |
| --- | --- | --- | --- | --- |
| Hu3A5 (V11) antibody (antibody, V domains shown, Humanized 3A5) VH: EVQLVQSGSELKKPGASVKVSCKASGYTFTSYWMHWMRQAPGQGLEWIGVIDPSDSYTSYNQGFTGRFVLSVDTSVSTAYLQISSLKAEDTAVYYCARGGKRAMDYWGQGTTVTVSS VL: DVVMTQSPDSLAVSLGERATINCKSSQSLVHSNGNTYLHWYQQKPGQPPKLLIYKVSNRFSGVPDRFSGSGSGTDFTLTISSLQAEDVAVYFCSQSTHVPFTFGGGTKLEIK | – | – | binds | 2.81 OD450 |
| Hu3A5 (V1) antibody (antibody, V domains shown, Humanized 3A5) VH: EVQLVQSGAEVKKPGASVKVSCKASGYTFTSYWMHWMRQAPGQGLEWIGVIDPSDSYTSYNQKFQGRVTLTVDTSTSTAYMELSSLRSEDTAVYYCARGGKRAMDYWGQGTTVTVSS VL: DVVMTQSPLSLPVTLGQPASISCRSSQSLVHSNGNTYLHWFQQRPGQSPRLLIYKVSNRFSGVPDRFSGSGSGTDFTLKISRVEAEDVGVYFCSQSTHVPFTFGGGTKLEIK | – | – | binds | 2.58 OD450 |
| Hu3A5 (V9) antibody (antibody, V domains shown, Humanized 3A5) VH: EVQLVQSGSELKKPGASVKVSCKASGYTFTSYWMHWMRQAPGQGLEWIGVIDPSDSYTSYNQGFTGRFVLSVDTSVSTAYLQISSLKAEDTAVYYCARGGKRAMDYWGQGTTVTVSS VL: DVVMTQSPLSLPVTLGQPASISCRSSQSLVHSNGNTYLHWFQQRPGQSPRLLIYKVSNRFSGVPDRFSGSGSGTDFTLKISRVEAEDVGVYFCSQSTHVPFTFGGGTKLEIK | – | – | binds | 2.65 OD450 |
| Hu3A5 (V3) antibody (antibody, V domains shown, Humanized 3A5) VH: EVQLVQSGAEVKKPGASVKVSCKASGYTFTSYWMHWMRQAPGQGLEWIGVIDPSDSYTSYNQKFQGRVTLTVDTSTSTAYMELSSLRSEDTAVYYCARGGKRAMDYWGQGTTVTVSS VL: DVVMTQSPDSLAVSLGERATINCKSSQSLVHSNGNTYLHWYQQKPGQPPKLLIYKVSNRFSGVPDRFSGSGSGTDFTLTISSLQAEDVAVYFCSQSTHVPFTFGGGTKLEIK | – | – | binds | 2.54 OD450 |
| Hu3A5 (V6) antibody (antibody, V domains shown, Humanized 3A5) VH: QVQLVQSGAEVKKPGASVKVSCKASGYTFTSYWMHWVRQAPGQGLEWMGVIDPSDSYTSYNQKFQGRVTMTVDTSTSTAYMELSSLRSEDTAVYYCARGGKRAMDYWGQGTTVTVSS VL: DVVMTQSPLSLPVTLGQPASISCRSSQSLVHSNGNTYLHWFQQRPGQSPRLLIYKVSNRFSGVPDRFSGSGSGTDFTLKISRVEAEDVGVYYCSQSTHVPFTFGGGTKLEIK | – | – | binds | 2.62 OD450 |
| Hu3A5 (V4) antibody (antibody, V domains shown, Humanized 3A5) VH: EVQLVQSGAEVKKPGASVKVSCKASGYTFTSYWMHWMRQAPGQGLEWIGVIDPSDSYTSYNQKFQGRVTLTVDTSTSTAYMELSSLRSEDTAVYYCARGGKRAMDYWGQGTTVTVSS VL: DVVMTQSPDSLAVSLGERATINCKSSQSLVHSNGNTYLHWYQQKPGQPPKLLIYKVSNRFSGVPDRFSGSGSGTDFTLTISSLQAEDVAVYYCSQSTHVPFTFGGGTKLEIK | – | – | binds | 2.74 OD450 |
| Hu3A5 (V8) antibody (antibody, V domains shown, Humanized 3A5) VH: QVQLVQSGAEVKKPGASVKVSCKASGYTFTSYWMHWVRQAPGQGLEWMGVIDPSDSYTSYNQKFQGRVTMTVDTSTSTAYMELSSLRSEDTAVYYCARGGKRAMDYWGQGTTVTVSS VL: DVVMTQSPDSLAVSLGERATINCKSSQSLVHSNGNTYLHWYQQKPGQPPKLLIYKVSNRFSGVPDRFSGSGSGTDFTLTISSLQAEDVAVYYCSQSTHVPFTFGGGTKLEIK | – | – | binds | 2.45 OD450 |

Results, then the molecule that gave them:

| Mean (fluorescence) [1] | Median (fluorescence) [1] | binding result [2] | OD450 measurements [3] | Molecule |
| --- | --- | --- | --- | --- |
| 80 | 73.9 | – | – | PE-conjugated goat anti-mouse IgG antibody (Biolegend Inc., cat# 405307) |
| – | – | binds | 0.106 OD450 | Hu3A5 (V16) antibody (antibody, V domains shown, Humanized 3A5) VH: QVQLVQSGSELKKPGASVKVSCKASGYTFTSYWMNWVRQAPGQGLEWMGVIDPSDSYTSYNQGFTGRFVFSVDTSVSTAYLQISSLKAEDTAVYYCARGGKRAMDYWGQGTTVTVSS VL: DVVMTQSPDSLAVSLGERATINCKSSQSLVHSNGNTYLHWYQQKPGQPPKLLIYKVSNRFSGVPDRFSGSGSGTDFTLTISSLQAEDVAVYYCSQSTHVPFTFGGGTKLEIK |
| – | – | binds | 0.111 OD450 | Hu3A5 (V15) antibody (antibody, V domains shown, Humanized 3A5) VH: QVQLVQSGSELKKPGASVKVSCKASGYTFTSYWMNWVRQAPGQGLEWMGVIDPSDSYTSYNQGFTGRFVFSVDTSVSTAYLQISSLKAEDTAVYYCARGGKRAMDYWGQGTTVTVSS VL: DVVMTQSPDSLAVSLGERATINCKSSQSLVHSNGNTYLHWYQQKPGQPPKLLIYKVSNRFSGVPDRFSGSGSGTDFTLTISSLQAEDVAVYFCSQSTHVPFTFGGGTKLEIK |
| – | – | binds | 2.85 OD450 | Hu3A5 (V12) antibody (antibody, V domains shown, Humanized 3A5) VH: EVQLVQSGSELKKPGASVKVSCKASGYTFTSYWMHWMRQAPGQGLEWIGVIDPSDSYTSYNQGFTGRFVLSVDTSVSTAYLQISSLKAEDTAVYYCARGGKRAMDYWGQGTTVTVSS VL: DVVMTQSPDSLAVSLGERATINCKSSQSLVHSNGNTYLHWYQQKPGQPPKLLIYKVSNRFSGVPDRFSGSGSGTDFTLTISSLQAEDVAVYYCSQSTHVPFTFGGGTKLEIK |
| – | – | – | 2.81 OD450 | Hu3A5 (V10) antibody (antibody, V domains shown) VH: EVQLVQSGSELKKPGASVKVSCKASGYTFTSYWMHWMRQAPGQGLEWIGVIDPSDSYTSYNQGFTGRFVLSVDTSVSTAYLQISSLKAEDTAVYYCARGGKRAMDYWGQGTTVTVSS VL: DVVMTQSPLSLPVTLGQPASISCRSSQSLVHSNGNTYLHWFQQRPGQSPRLLIYKVSNRFSGVPDRFSGSGSGTDFTLKISRVEAEDVGVYYCSQSTHVPFTFGGGTKLEIK |
| – | – | binds | 2.69 OD450 | Hu3A5 (V2) antibody (antibody, V domains shown, Humanized 3A5) VH: EVQLVQSGAEVKKPGASVKVSCKASGYTFTSYWMHWMRQAPGQGLEWIGVIDPSDSYTSYNQKFQGRVTLTVDTSTSTAYMELSSLRSEDTAVYYCARGGKRAMDYWGQGTTVTVSS VL: DVVMTQSPLSLPVTLGQPASISCRSSQSLVHSNGNTYLHWFQQRPGQSPRLLIYKVSNRFSGVPDRFSGSGSGTDFTLKISRVEAEDVGVYYCSQSTHVPFTFGGGTKLEIK |
| – | – | binds | 2.57 OD450 | Hu3A5 (V5) antibody (antibody, V domains shown, Humanized 3A5) VH: QVQLVQSGAEVKKPGASVKVSCKASGYTFTSYWMHWVRQAPGQGLEWMGVIDPSDSYTSYNQKFQGRVTMTVDTSTSTAYMELSSLRSEDTAVYYCARGGKRAMDYWGQGTTVTVSS VL: DVVMTQSPLSLPVTLGQPASISCRSSQSLVHSNGNTYLHWFQQRPGQSPRLLIYKVSNRFSGVPDRFSGSGSGTDFTLKISRVEAEDVGVYFCSQSTHVPFTFGGGTKLEIK |
| – | – | binds | 0.0966 OD450 | Hu3A5 (V13) antibody (antibody, V domains shown, Humanized 3A5) VH: QVQLVQSGSELKKPGASVKVSCKASGYTFTSYWMNWVRQAPGQGLEWMGVIDPSDSYTSYNQGFTGRFVFSVDTSVSTAYLQISSLKAEDTAVYYCARGGKRAMDYWGQGTTVTVSS VL: DVVMTQSPLSLPVTLGQPASISCRSSQSLVHSNGNTYLHWFQQRPGQSPRLLIYKVSNRFSGVPDRFSGSGSGTDFTLKISRVEAEDVGVYFCSQSTHVPFTFGGGTKLEIK |
| – | – | binds | 2.67 OD450 | Hu3A5 (V7) antibody (antibody, V domains shown, Humanized 3A5) VH: QVQLVQSGAEVKKPGASVKVSCKASGYTFTSYWMHWVRQAPGQGLEWMGVIDPSDSYTSYNQKFQGRVTMTVDTSTSTAYMELSSLRSEDTAVYYCARGGKRAMDYWGQGTTVTVSS VL: DVVMTQSPDSLAVSLGERATINCKSSQSLVHSNGNTYLHWYQQKPGQPPKLLIYKVSNRFSGVPDRFSGSGSGTDFTLTISSLQAEDVAVYFCSQSTHVPFTFGGGTKLEIK |
| – | – | binds | 0.147 OD450 | Hu3A5 (V14) antibody (antibody, V domains shown, Humanized 3A5) VH: QVQLVQSGSELKKPGASVKVSCKASGYTFTSYWMNWVRQAPGQGLEWMGVIDPSDSYTSYNQGFTGRFVFSVDTSVSTAYLQISSLKAEDTAVYYCARGGKRAMDYWGQGTTVTVSS VL: DVVMTQSPLSLPVTLGQPASISCRSSQSLVHSNGNTYLHWFQQRPGQSPRLLIYKVSNRFSGVPDRFSGSGSGTDFTLKISRVEAEDVGVYYCSQSTHVPFTFGGGTKLEIK |
